# Tested on: human platelets
# Test: Platelet adhesion assay (pNPP test)
# Assay type: cell-based
# Conditions: human citrated PRP 45 min at 37° C.; PU = Carbothane PC3585A; PPG 468 and 728; fibrinogen-coated wells positive control; FIG. 10
# Method: • Blood collection tubes: sodium citrate Vacutainer tubes (3.2% citrate, BD Biosciences) • Non-binding 24-well and 96-well plates for suspension culture (polystyrene, Greiner Bio-One) • Spectrophotometer Spectra max PLUS 384 (Molecular Devices) • Human Fibrinogen ref 341576 (Calbiochem) • 2×pNPP buffer (0.1M citrate buffer pH5.4, 10 mM p-nitrophenylphosphate, 2% Triton X-100)
# Platelet adhesion on surfaces is analysed by using the p-NitroPhenil Phosphate (pNPP) test. Values obtained with this test are directly proportional to the number of platelets adhering to the surface. The pNPP test measures the levels of alkaline and acid phosphatases released upon platelet lysis. The hydrolysis of pNPP, a substrate of these phosphatases, produces p-nitrophenol, which has a maximal absorbance at 405 nm and is proportional to the amount of platelets bound to the surface. • 1. […] 100 μl is transferred in a 96-well plate before measuring the absorbance at 405 nm in a spectrophotometer. • 10. Background readings from the PPP incubation is subtracted from the PRP reads. • 11. Numbers of platelets are determined from a calibration curve performed with increasing platelet densities. e. […]
# Platelet adhesion was analysed by using the p-NitroPhenil Phosphate (pNPP) assay as described in the protocol of testing of example 10 at point b
substance,measurement,value
fibrinogen,human platelet adhesion,adhesion was observed

# — patent US20240139371A1, “NEW ANTIMICROBIAL AND ANTITHROMBOGENIC MEDICAL DEVICE” (UNIVERSITÉ DE LIÈGE, priority 2021, published 2024)
